Our source for the binding result and IC50 values is patent publication US20100254992A1 (published 2010).

Assay [1] has as its target T1, human MCP-3 (human, UniProt P80098 24-99).
T1 construct: also called CCL7
Description: BIAcore. For orientation: SPR reads the build-up and loss of mass on a sensor chip optically.

Assay [2] has as its target T2, human Eotaxin 3 (human, UniProt Q9Y258 24-94).
T2 sequence (looked up): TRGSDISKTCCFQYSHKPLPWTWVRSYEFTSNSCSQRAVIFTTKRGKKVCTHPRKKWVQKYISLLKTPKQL
The experiment in a line: BIAcore.

Assay [3] concerns the target T3, human Eotaxin 2 (human, UniProt O00175 27-104, limits assumed).
T3 sequence (looked up): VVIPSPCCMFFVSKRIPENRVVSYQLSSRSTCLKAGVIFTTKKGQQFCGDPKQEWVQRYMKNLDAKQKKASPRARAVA
Description: BIAcore.

Assay [4] addresses T4, human MCP-4 (human, UniProt Q99616 24-98, limits assumed).
T4 construct: also called CCL13
The experiment in a line: BIAcore.

Assay [5] addresses T5, human Eotaxin 1 (human, UniProt P51671 24-97). The experiment in a line: BIAcore.
The target in assay [6] is T1, human MCP-3. Description: Biacore, IgG capture mode.
In assay [7] the target is T2, human Eotaxin 3. The experiment in a line: Biacore, IgG capture mode.
For assay [8], the target named is T3, human Eotaxin 2. Description: Biacore, IgG capture mode.
The target of assay [9] is T4, human MCP-4. Description: Biacore, IgG capture mode.
Assay [10] has as its target T5, human Eotaxin 1. The experiment in a line: BioVeris solution equilibrium titration. The procedure:
Solution Equilibrium Titration (SET) Method for KD Determination and Cross-Reactivity Studies Using BioVeris. Affinity determination in solution was basically performed as described in the literature (Friguet et al., 1985). In order to improve the sensitivity and accuracy of the SET method, it was transferred from classical ELISA to ECL based BioVeris technology (Haenel et al., 2005, accepted for publication in Analytical Biochemistry). 1 mg/ml goat-anti-human (Fab)₂ or goat-anti-mouse IgG, Fc fragment specific antibodies (Jackson Immuno Research) were labelled with BV-tag™ NHS-Ester (Bioveris Europe, Witney, Oxfordshire, UK) according to manufacturer's instructions. The experiments were carried out in polypropylene microtiter plates and PBS pH 7.4 with 0.5% BSA and 0.02% Tween 20 as assay buffer. Unlabeled antigen was diluted in 4ⁿ series: For human and cyno MCP-1 a concentration range of 10 pM to 40 nM and for cross-reactivity controls (Eotaxin and MCP-2) a concentration range of 40 pM to 160 nM was chosen. Wells without antigen were used to determine Smax values. After addition of 100 pM Fab or IgG (final concentration in 75 μL final volume), the mixture was incubated for 2 hours at RT. […]
Specificity Testing Using BioVeris. Beside the affinity also the specificity, especially the cross-reactivity to Eotaxin and MCP-2, was analyzed in solution equilibrium titration (SET) using BioVeris. […]

The target in another assay is T6, human MCP-2 (human, UniProt P80075 24-99).
T6 construct: also called CCL8
T6 sequence (looked up): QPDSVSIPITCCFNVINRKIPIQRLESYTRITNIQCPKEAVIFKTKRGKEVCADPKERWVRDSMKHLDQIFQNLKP
The experiment in a line: 125I-MCP-2 binding to CCR2 on Thp-1 cells, radioligand competition.

T5 sequence (P51671 24-97 limits assumed): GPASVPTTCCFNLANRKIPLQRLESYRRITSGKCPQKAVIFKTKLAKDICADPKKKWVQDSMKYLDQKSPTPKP
T4 sequence (Q99616 24-98 limits assumed): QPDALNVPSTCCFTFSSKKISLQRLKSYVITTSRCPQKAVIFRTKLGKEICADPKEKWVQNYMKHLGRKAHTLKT
T1 sequence (P80098 24-99 limits assumed): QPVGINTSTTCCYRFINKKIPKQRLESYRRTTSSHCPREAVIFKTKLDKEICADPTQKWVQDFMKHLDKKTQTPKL

B1: CNTO 888 (antibody, V domains shown)
VH: QVQLVQSGAEVKKPGSSVKVSCKASGGTFSSYGISWVRQAPGQGLEWMGGIIPIFGTANYAQKFQGRVTITADESTSTAYMELSSLRSEDTAVYYCARYDGIYGELDFWGQGTLVTVSS
VL: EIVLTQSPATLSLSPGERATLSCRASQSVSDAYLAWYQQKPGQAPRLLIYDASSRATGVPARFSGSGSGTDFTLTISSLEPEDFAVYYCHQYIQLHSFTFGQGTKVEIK
notes: Fully human IgG1 kappa
As to B1, the binding result in the assay with human MCP-3 [1], with human Eotaxin 3 [2], with human Eotaxin 2 [3], with human MCP-4 [4] and in the assay with human Eotaxin 1 [5] was “no binding” each time.

B2: MOR03790 IgG1 (antibody, V domains shown)
VH: QVELVQSGAEVKKPGSSVKVSCKASGGTFSSYGISWVRQAPGQGLEWMGGIIPIFGTANYAQKFQGRVTITADESTSTAYMELSSLRSEDTAVYYCARYDGIYGELDFWGQGTLVTVSS
VL: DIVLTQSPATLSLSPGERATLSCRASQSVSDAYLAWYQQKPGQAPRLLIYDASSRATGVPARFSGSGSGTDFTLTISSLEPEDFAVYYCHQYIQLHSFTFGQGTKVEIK
notes: Human IgG1; also called MOR3790 IgG1; MOR3790k IgG
B2: the binding result with human MCP-3 [6] is “no binding (tested: 100 nM)”; with human Eotaxin 3 [7], “no binding (tested: 100 nM)”; with human Eotaxin 2 [8], “no binding (tested: 100 nM)”; in the assay with human MCP-4 [9], “no binding (tested: 100 nM)”; with human Eotaxin 1 [10], “no binding (tested: 40 pM to 160 nM)”.

B3: MOR03754 Fab (Fab, V domains shown)
VH: QVQLVESGGGLVQPGGSLRLSCAASGFTFRSYGMSWVRQAPGKGLEWVSSIEHKWSGYATTYAASVKGRFTISRDNSKNTLYLQMNSLRAEDTAVYYCARFEFTPWTYFDFWGQGTLVTVSS
VL: DIELTQPPSVSVAPGQTARISCSGDNLGKKYVYWYQQKPGQAPVLVIYDDDNRPSGIPERFSGSNSGNTATLTISGTQAEDEADYYCQSYTAQSSASFGGGTKLTVL
On to B3, for which the half-inhibitory concentration (IC50) with human MCP-2 was at least 2000 nM.

Broadly, the IC50 is the concentration at which inhibition is half-maximal. The low end stands for higher potency, the high end for lower potency.
